Source: article doi:10.1101/2022.05.27.493400 (2022)

Target: human angiotensin-converting-enzyme-2 (ACE2) receptor, recombinant (human, UniProt Q9BYF1 18-740)
Assay: SPR

human angiotensin-converting-enzyme-2 (ACE2) receptor, recombinant, sequence (Q9BYF1 18-740): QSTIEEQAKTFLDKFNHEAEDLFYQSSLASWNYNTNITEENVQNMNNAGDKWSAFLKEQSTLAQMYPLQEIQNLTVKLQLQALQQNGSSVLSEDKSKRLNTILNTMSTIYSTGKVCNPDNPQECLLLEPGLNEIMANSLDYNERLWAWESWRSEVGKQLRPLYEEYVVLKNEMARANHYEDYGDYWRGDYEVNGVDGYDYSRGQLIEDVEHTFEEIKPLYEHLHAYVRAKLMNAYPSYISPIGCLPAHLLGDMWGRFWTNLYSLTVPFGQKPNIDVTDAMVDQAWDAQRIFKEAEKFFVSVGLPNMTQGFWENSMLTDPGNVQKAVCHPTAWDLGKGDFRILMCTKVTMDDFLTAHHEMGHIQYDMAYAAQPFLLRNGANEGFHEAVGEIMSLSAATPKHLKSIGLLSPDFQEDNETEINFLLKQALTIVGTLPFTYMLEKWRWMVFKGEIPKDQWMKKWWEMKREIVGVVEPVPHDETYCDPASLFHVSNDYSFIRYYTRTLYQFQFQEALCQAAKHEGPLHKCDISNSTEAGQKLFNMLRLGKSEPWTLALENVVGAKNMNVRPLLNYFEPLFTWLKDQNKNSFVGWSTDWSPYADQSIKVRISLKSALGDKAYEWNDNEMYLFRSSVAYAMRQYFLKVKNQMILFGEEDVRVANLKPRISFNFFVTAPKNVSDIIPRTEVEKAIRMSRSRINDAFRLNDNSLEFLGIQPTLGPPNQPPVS

B1: pineapple-derived jacalin-related lectin AcmJRL (natural protein)
chain: SGLVKLGLWGGNEGTLQDIDGHPTRLTKIVIRSAHAIDALQFDYVEDGKTFAAGQWGGNGGKSDTIEFQPGEYLIAIKGTTGALGAVTNLVRSLTFISNMRTYGPFGLEHGTPFSVPVASGRIVAFYGRFGSLVDAFGIYLMPY
modifications: glycation (+162 Da, +324 Da) of lysines in part of the protein (ca. 10% bis-, 36% mono-modified, 54% unmodified); sites not determined
Kd: 36.4 µM
